Consider 94 variants from the supplement of paper PMC10567573.

B1: PLK2 (parent)
chain: YAELGQCSVFPATDAPEQFISQVT
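Note: lentivirally expressed fusions sorted by FACS into six bins by GFP to DsRed ratio, PSI derived from sequencing read proportions per bin multiplied by bin number.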

Variants of B1 are the subject of this data set. The data set is described as follows: protein stability index of a GFP-peptide fusion (GPS, HEK-293T) (PSI 1-6); higher = more stable. The following applies: c terminus: a fixed tail appended.
As for YAEAGQCSVFPATDAPEQFISQVT [L4A], the protein stability index was determined as 2.33. Next, YAEIGQCSVFPATDAPEQFISQVT [L4I]: 2.5; YAECGQCSVFPATDAPEQFISQVT [L4C]: 2.43. Next, YAELGQCSVGPATDAPEQFISQVT [F10G]: 3.27; YAELGQCSVPPATDAPEQFISQVT [F10P]: 3.58. Next, YAELGQCSVWPATDAPEQFISQVT [F10W]: 2.96; YAELGQCSVAPATDAPEQFISQVT [F10A]: 3.34. Consider YAELGQCSVNPATDAPEQFISQVT [F10N], for which the protein stability index stood at 3.43. Take YAELGQCSVMPATDAPEQFISQVT [F10M]: the protein stability index came out at 3.06.

As to YAELGQCSVHPATDAPEQFISQVT [F10H], the protein stability index was determined as 3.43. Next, YAELGQCSVCPATDAPEQFISQVT [F10C]: 3.07; YAELGQCSVRPATDAPEQFISQVT [F10R]: 3.18; YAELGQCSVIPATDAPEQFISQVT [F10I]: 2.87. Under YAELGQCSVFPATDGPEQFISQVT [A15G] stands 2.38; under YAELGQCSVFPATDIPEQFISQVT [A15I], 1.96; under YAELGQCSVFPATDVPEQFISQVT [A15V], 2.22. Under YAELGQCSVFPATDEPEQFISQVT [A15E] stands 2.6; under YAELGQCSVFPATDRPEQFISQVT [A15R], 2.21.

As for YAELGQCSVFPATDDPEQFISQVT [A15D], the protein stability index was found to be 2.27.

YAELGQCSVFPATDTPEQFISQVT [A15T]: the protein stability index worked out at 2.19. Under YAELGQCSVFPATDNPEQFISQVT [A15N] stands 2.33; under YAELGQESVFPATDAPEQFISQVT [C7E], 3.9; under YAELGQLSVFPATDAPEQFISQVT [C7L], 1.69. Next, YAELGQASVFPATDAPEQFISQVT [C7A]: 3.2; YAELGQTSVFPATDAPEQFISQVT [C7T]: 2.87. Consider YAELGQFSVFPATDAPEQFISQVT [C7F], for which the protein stability index was determined as 1.78. Under YAELGQDSVFPATDAPEQFISQVT [C7D] stands 3.04; under YAELGQWSVFPATDAPEQFISQVT [C7W], 2.5; under YAELGQMSVFPATDAPEQFISQVT [C7M], 2.23. With YAELGQISVFPATDAPEQFISQVT [C7I], the protein stability index was 1.97. Next, YAELGQCSAFPATDAPEQFISQVT [V9A]: 2.36; YAELGQCSFFPATDAPEQFISQVT [V9F]: 1.67. Next, YAELGQCSYFPATDAPEQFISQVT [V9Y]: 2.02; YAELGQCSNFPATDAPEQFISQVT [V9N]: 3.02. YAELGQCSPFPATDAPEQFISQVT [V9P]: the protein stability index worked out at 2.41. Next, YAELGQCSSFPATDAPEQFISQVT [V9S]: 3.34.

As for YAELGQCSRFPATDAPEQFISQVT [V9R], the protein stability index worked out at 2.17. Next, YAELGQCSMFPATDAPEQFISQVT [V9M]: 1.98.

As to YAELGQCSCFPATDAPEQFISQVT [V9C], the protein stability index came to 2.42. For the variant YAELGQCSIFPATDAPEQFISQVT [V9I], the protein stability index was found to be 2.62. Under YAELGQCSVFPATDAPEQFDSQVT [I20D] stands 2.75; under YAELGQCSVFPATDAPEQFQSQVT [I20Q], 2.31; under YAELGQCSVFPATDAPEQFGSQVT [I20G], 2.69. Next, YAELGQCSVFPATDAPEQFHSQVT [I20H]: 2.96. As to YAELGQCSVFPATDAPEQFLSQVT [I20L], the protein stability index was 2.11. Under YAELGQCSVFPATDAPEQFISIVT [Q22I] stands 1.52; under YAELGQCSVFPATDAPEQFISDVT [Q22D], 2.75; under YAELGQCSVFPATDAPEQFISSVT [Q22S], 2.06. In the case of YAELGQCSVFPATDAPEQFISWVT [Q22W], the protein stability index worked out at 2.09.

Take YAELGQCSVFPATDAPEQFISLVT [Q22L]: the protein stability index came to 1.7.

With YAELGQCSVFPATDAPEQFISYVT [Q22Y], the protein stability index came out at 1.86. Next, YAELGQCSVFPATDAPEQFISNVT [Q22N]: 2.31; YAELGQCSVFPATDAPEQFISTVT [Q22T]: 2.1; YAELGQCGVFPATDAPEQFISQVT [S8G]: 1.93. For YAELGQCEVFPATDAPEQFISQVT [S8E], the protein stability index is 3.17. For the variant YAELGQCRVFPATDAPEQFISQVT [S8R], the protein stability index stood at 1.9. On to YAELGQCIVFPATDAPEQFISQVT [S8I], for which the protein stability index was found to be 1.75.

Regarding YAELGQCFVFPATDAPEQFISQVT [S8F], the protein stability index stood at 2.53.

Regarding YAELGQCPVFPATDAPEQFISQVT [S8P], the protein stability index stood at 2.04. Under YAELGQCLVFPATDAPEQFISQVT [S8L] stands 1.62; under YAELGQCCVFPATDAPEQFISQVT [S8C], 1.64; under YAELGQCDVFPATDAPEQFISQVT [S8D], 3.06. Under YAELGQCSVFPATDAPEQMISQVT [F19M] stands 2.43; under YAELGQCSVFPATDAPEQCISQVT [F19C], 1.96; under YAELGQCSVFPATDAPEQQISQVT [F19Q], 2.81.

As for YAELGQCSVFPATDAPEQPISQVT [F19P], the protein stability index is 2.4. Under YAELGQCSVFPATDAPEQTISQVT [F19T] stands 2.7.

Regarding YAELGQCSVFPATDAPEQLISQVT [F19L], the protein stability index was 2.36. Next, YAELGQCSVFPATDAPEQVISQVT [F19V]: 2.28. Next, YAELGQCSVFPATDAPEQGISQVT [F19G]: 2.38; HAELGQCSVFPATDAPEQFISQVT [Y1H]: 4. Turning to KAELGQCSVFPATDAPEQFISQVT [Y1K], the protein stability index turned out to be 4.16.

In the case of SAELGQCSVFPATDAPEQFISQVT [Y1S], the protein stability index amounted to 4.09. WAELGQCSVFPATDAPEQFISQVT [Y1W]: the protein stability index was found to be 2.84. On to QAELGQCSVFPATDAPEQFISQVT [Y1Q], for which the protein stability index worked out at 4.7. Under NAELGQCSVFPATDAPEQFISQVT [Y1N] stands 4.46; under IAELGQCSVFPATDAPEQFISQVT [Y1I], 3.44; under TAELGQCSVFPATDAPEQFISQVT [Y1T], 3.99. Next, LAELGQCSVFPATDAPEQFISQVT [Y1L]: 3.54; VAELGQCSVFPATDAPEQFISQVT [Y1V]: 3.56; YAELGQCSVFPATDAYEQFISQVT [P16Y]: 1.79.

As for YAELGQCSVFPATDACEQFISQVT [P16C], the protein stability index stood at 2.04. YAELGQCSVFPATDALEQFISQVT [P16L]: the protein stability index amounted to 1.84. YAELGQCSVFPATDAGEQFISQVT [P16G]: the protein stability index was 1.89. Next, YAELGQCSVFPATDADEQFISQVT [P16D]: 2.53; YAELGQCSVFPATDAAEQFISQVT [P16A]: 1.8; YAELGQCSVFPATDAEEQFISQVT [P16E]: 2.66.

Turning to YAELGWCSVFPATDAPEQFISQVT [Q6W], the protein stability index was 2.89. Regarding YAELGKCSVFPATDAPEQFISQVT [Q6K], the protein stability index was 2.05. For the variant YAELGECSVFPATDAPEQFISQVT [Q6E], the protein stability index stood at 3.19.

With YAELGSCSVFPATDAPEQFISQVT [Q6S], the protein stability index is 2.42. Next, YAELGRCSVFPATDAPEQFISQVT [Q6R]: 1.69; YAELGMCSVFPATDAPEQFISQVT [Q6M]: 1.54; YAELGFCSVFPATDAPEQFISQVT [Q6F]: 2.14.
